In assay [1] the target is T1, human IL-4 (human, UniProt P05112 25-153, biotinylated in the receptor binding assay and on the Biacore chip).
T1 construct: also called interleukin-4; biotinylated IL-4
T1 sequence (looked up): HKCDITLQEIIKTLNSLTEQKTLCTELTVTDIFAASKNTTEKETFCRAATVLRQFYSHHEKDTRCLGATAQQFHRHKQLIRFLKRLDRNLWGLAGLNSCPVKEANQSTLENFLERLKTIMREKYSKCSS
As to the kind of experiment: DOM9 RBA (IL-4 RBA). The text has this: The wells were washed three times with 0.1% (v/v) Tween 20 in PBS, followed by three washes with PBS, before blocking with 2% (w/v) BSA in PBS. […] The reaction was stopped by the addition of HCl and the absorbance read at 450 nm.

Assay [2] has as its target T2, human IL-13 (human, UniProt P35225 35-146, biotinylated on the Biacore chip).
T2 construct: also called hIL-13; recombinant human IL-13
As to the kind of experiment: Dom10 RBA (IL-13 sandwich ELISA per paragraph 471). Here is the method: A MAXISORP™ plate (high protein binding ELISA plate, Nunc, Denmark) was coated overnight with 2.5 μg/ml coating antibody (Module Set, Bender MedSystems, Vienna, Austria), then washed once with 0.05% (v/v) Tween 20 in PBS before blocking with 0.5% (w/v) BSA 0.05% (v/v) Tween 20 in PBS. […] The plate was then incubated with TMB substrate (KPL, Gaithersburg, USA), and the reaction was stopped by the addition of HCl and the absorbance read at 450 nm.
For orientation: In an ELISA, binding on a coated surface is turned into a signal by an enzyme label.

Data on 14 molecules can be found in patent US20090060916A1 (published 2009).

T2 sequence (P35225 35-146 limits assumed): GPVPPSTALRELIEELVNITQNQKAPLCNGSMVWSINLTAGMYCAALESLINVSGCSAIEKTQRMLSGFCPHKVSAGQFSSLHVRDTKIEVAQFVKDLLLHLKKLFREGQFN

B1: DOM9-112-210-ASTKGPS-DOM10-224 (bispecific antibody)
chain: EVQLLESGGGLVQPGGSLRLSCAASGFTFRNFGMGWVRQAPGKGLEWVSWIISSGTETYYADSVKGRFTISRDNSKNTLYLQMNSLRAEDTAVYYCAKSLGRFDYWGQGTLVTVSSASTKGPSDIQMTQSPSSLSASVGDRVTITCRASPNIAVDLAWYQQKPGKAPKLLIRGVSRLQSGVPSRFSGSGSGTDFTLTISSLQPEDFATYYCRQGAMGSYTFGQGTKVEIKR
notes: in-line fusion, from pDOM5
As for B1, the 50% inhibitory concentration (IC50) in assay [1] stood at 2.75 nM. In assay [2], this molecule had a concentration for a half-maximal effect (EC50) of 4580 nM.

B2: DOM10-273-ASTKGPS-DOM9-155-78 (bispecific antibody)
chain: EVQLLESGGGLVQPGGSLRLSCAASGFTFELEEMDWVRQAPGKGLEWVSSISGSGGSTYYADSVKGRFTISRDNSKNTLYLQMNSLRAEDTAVYYCAKAYTGFDYWGQGTLVTVSSASTKGPSDIQMTQSPSSLSASVGDRVTITCRASRHIGDWLHWYQQKPGKAPKLLIAWASTLDSGVPSRFSGSGSGTDFTLTISSLQPEDFATYYCLQEGWGPPTFGQGTKVEIKR
notes: in-line fusion, from pDOM5
In assay [1], B2 yielded an IC50 of 2.25 nM. Moreover, the concentration giving a half-maximal response (EC50) in assay [2] worked out at 185 nM.

B3: DOM10-416-ASTKGPS-DOM9-155-78 (bispecific antibody)
chain: EVQLLESGGGLVQPGGSLRLSCAASGFTFKGSEMDWVRQAPGKGLEWVSTISADGRETYYADSVKGRFTISRDNSKNTLYLQMNSLRAEDTAVYYCAKSYTSFDYWGQGTLVTVSSASTKGPSDIQMTQSPSSLSASVGDRVTITCRASRHIGDWLHWYQQKPGKAPKLLIAWASTLDSGVPSRFSGSGSGTDFTLTISSLQPEDFATYYCLQEGWGPPTFGQGTKVEIKR
notes: in-line fusion, from pDOM5
Turning to B3, the IC50 in assay [1] was 5.88 nM. This molecule had a half-maximal effective concentration (EC50) in assay [2] of 444 nM.

B4: DOM10-277-ASTKGPS-DOM9-155-78 (bispecific antibody)
chain: EVQLLESGGGLVQPGGSLRLSCAASGFTFSSYEMDWVRQAPGKGLEWVSTISADGVTTYYADSVKGRFTISRDNSKNTLYLQMNSLRAEDTAVYYCAKAFDAFDYWGQGTLVTVSSASTKGPSDIQMTQSPSSLSASVGDRVTITCRASRHIGDWLHWYQQKPGKAPKLLIAWASTLDSGVPSRFSGSGSGTDFTLTISSLQPEDFATYYCLQEGWGPPTFGQGTKVEIKR
notes: in-line fusion, from pDOM5
In assay [1], B4 yielded an IC50 of 9.45 nM. In assay [2], the EC50 amounted to 648 nM.

B5: DOM10-213-TVAAPS-DOM9-155-78 (bispecific antibody)
chain: DIQMTQSPSSLSASVGDRVTITCRASQAIPWGLNWYQQKPGKAPKLLIYDVSSLQSGVPSRFSGSGSGTDFTLTISSLQPEDFATYYCQQDIHIPMTFGQGTKVEIKRTVAAPSDIQMTQSPSSLSASVGDRVTITCRASRHIGDWLHWYQQKPGKAPKLLIAWASTLDSGVPSRFSGSGSGTDFTLTISSLQPEDFATYYCLQEGWGPPTFGQGTKVEIKR
notes: in-line fusion, from pDOM5
Turning to B5, the IC50 in assay [1] was found to be 6.91 nM. For the same molecule, a half-maximal effect in assay [2] (EC50) was put at 62 nM.

B6: DOM10-215-TVAAPS-DOM9-155-78 (bispecific antibody)
chain: DIQMTQSPSSLSASVGDRVTITCRASQNIFADLNWYQQKPGKAPKLLIYMGSRLQSGVPSRFSGSGSGTDFTLTISSLQPEDFATYYCQQDYKFPLTFGQGTKVEIKRTVAAPSDIQMTQSPSSLSASVGDRVTITCRASRHIGDWLHWYQQKPGKAPKLLIAWASTLDSGVPSRFSGSGSGTDFTLTISSLQPEDFATYYCLQEGWGPPTFGQGTKVEIKR
notes: in-line fusion, from pDOM5
In the case of B6, the IC50 in assay [1] was determined as 6.65 nM. Further, in assay [2], a half-maximal effect (EC50) was put at 10.8 nM.

B7: DOM9-112-210-ASTKGPS-DOM10-273 (bispecific antibody)
chain: EVQLLESGGGLVQPGGSLRLSCAASGFTFRNFGMGWVRQAPGKGLEWVSWIISSGTETYYADSVKGRFTISRDNSKNTLYLQMNSLRAEDTAVYYCAKSLGRFDYWGQGTLVTVSSASTKGPSEVQLLESGGGLVQPGGSLRLSCAASGFTFELEEMDWVRQAPGKGLEWVSSISGSGGSTYYADSVKGRFTISRDNSKNTLYLQMNSLRAEDTAVYYCAKAYTGFDYWGQGTLVTVSS
notes: in-line fusion, from pDOM5
Consider B7, for which the IC50 in assay [1] came to 10.5 nM. For the same molecule, the EC50 in assay [2] was 4550 nM.

B8: DOM9-112-210-ASTKGPS-DOM10-277 (bispecific antibody)
chain: EVQLLESGGGLVQPGGSLRLSCAASGFTFRNFGMGWVRQAPGKGLEWVSWIISSGTETYYADSVKGRFTISRDNSKNTLYLQMNSLRAEDTAVYYCAKSLGRFDYWGQGTLVTVSSASTKGPSEVQLLESGGGLVQPGGSLRLSCAASGFTFSSYEMDWVRQAPGKGLEWVSTISADGVTTYYADSVKGRFTISRDNSKNTLYLQMNSLRAEDTAVYYCAKAFDAFDYWGQGTLVTVSS
notes: in-line fusion, from pDOM5
B8: the IC50 in assay [1] turned out to be 11.7 nM. In assay [2], this molecule had an EC50 of 4380 nM.

B9: DOM9-112-210-ASTKGPS-DOM10-416 (bispecific antibody)
chain: EVQLLESGGGLVQPGGSLRLSCAASGFTFRNFGMGWVRQAPGKGLEWVSWIISSGTETYYADSVKGRFTISRDNSKNTLYLQMNSLRAEDTAVYYCAKSLGRFDYWGQGTLVTVSSASTKGPSEVQLLESGGGLVQPGGSLRLSCAASGFTFKGSEMDWVRQAPGKGLEWVSTISADGRETYYADSVKGRFTISRDNSKNTLYLQMNSLRAEDTAVYYCAKSYTSFDYWGQGTLVTVSS
notes: in-line fusion, from pDOM5
B9 registered an IC50 in assay [1] of 7.27 nM. This molecule also came in with an EC50 in assay [2] of 34400 nM.

B10: DOM9-112-210-ASTKGPS-DOM10-212 (bispecific antibody)
chain: EVQLLESGGGLVQPGGSLRLSCAASGFTFRNFGMGWVRQAPGKGLEWVSWIISSGTETYYADSVKGRFTISRDNSKNTLYLQMNSLRAEDTAVYYCAKSLGRFDYWGQGTLVTVSSASTKGPSDIQMTQSPSSLSASVGDRVTITCRASSVILNELHWYQQKPGKAPKLLISAVSRLQSGVPSRFSGSGSGTDFTLTISSLQPEDFATYYCLQTFWGPFTFGQGTKVEIKR
notes: in-line fusion, from pDOM5
As for B10, in assay [1], the IC50 amounted to 3.21 nM. This molecule also registered a 50% effective concentration (EC50) in assay [2] of 1000 nM.

B11: DOM9-112-210-DOM10-270 (bispecific antibody)
chain: EVQLLESGGGLVQPGGSLRLSCAASGFTFRNFGMGWVRQAPGKGLEWVSWIISSGTETYYADSVKGRFTISRDNSKNTLYLQMNSLRAEDTAVYYCAKSLGRFDYWGQGTLVTVSSASTKGPSDIQMTQSPSSLSASVGDRVTITCRASSVILNELHWYQQKPGKAPKLLISAVSRLQSGVPSRFSGSGSGTDFTLTISSLQPEDFATYYCLQTFWGPYTFGQGTKVEIKR
notes: in-line fusion, from pDOM5
In assay [1], B11 had an IC50 of 2.79 nM. For the same molecule, the half-maximal effective concentration (EC50) in assay [2] stood at 398 nM.

B12: DOM10-208-TVAAPS-DOM9-155-78 (bispecific antibody)
chain: DIQMTQSPSSLSASVGDRVTITCRASSPITDGLAWYQQKPGKAPKLLIDTGSRLQSGVPSRFSGSGSGTDFTLTISSLQPEDFATYYCRQGAMGSYTFGQGTKVEIKRTVAAPSDIQMTQSPSSLSASVGDRVTITCRASRHIGDWLHWYQQKPGKAPKLLIAWASTLDSGVPSRFSGSGSGTDFTLTISSLQPEDFATYYCLQEGWGPPTFGQGTKVEIKR
notes: in-line fusion, from pDOM5
For the molecule B12, the IC50 in assay [1] is 8.18 nM. The same molecule registered a 50% effective concentration (EC50) in assay [2] of 4240 nM.

B13: DOM9-112-210-ASTKGPS-DOM10-213 (bispecific antibody)
chain: EVQLLESGGGLVQPGGSLRLSCAASGFTFRNFGMGWVRQAPGKGLEWVSWIISSGTETYYADSVKGRFTISRDNSKNTLYLQMNSLRAEDTAVYYCAKSLGRFDYWGQGTLVTVSSASTKGPSDIQMTQSPSSLSASVGDRVTITCRASQAIPWGLNWYQQKPGKAPKLLIYDVSSLQSGVPSRFSGSGSGTDFTLTISSLQPEDFATYYCQQDIHIPMTFGQGTKVEIKR
notes: in-line fusion, from pDOM5
In turn, B13 registered an IC50 in assay [1] of 4.29 nM. The molecule further gave an EC50 in assay [2] of 1150 nM.

B14: DOM10-270-TVAAPS-DOM9-155-78 (bispecific antibody)
chain: DIQMTQSPSSLSASVGDRVTITCRASSVILNELHWYQQKPGKAPKLLISAVSRLQSGVPSRFSGSGSGTDFTLTISSLQPEDFATYYCLQTFWGPYTFGQGTKVEIKRTVAAPSDIQMTQSPSSLSASVGDRVTITCRASRHIGDWLHWYQQKPGKAPKLLIAWASTLDSGVPSRFSGSGSGTDFTLTISSLQPEDFATYYCLQEGWGPPTFGQGTKVEIKR
notes: in-line fusion, from pDOM5
In assay [1], B14 gave an IC50 of 8.6 nM. Also, the midpoint of the response in assay [2], the EC50, lay at 37.2 nM.

In general, IC50 refers to the concentration that gives 50% inhibition. A higher IC50 goes with lower potency. As usually defined, the EC50 is the concentration needed to bring the measured effect to its halfway point. Read a high EC50 as a less potent agent.
